This is an account of results in publication PMC6847465 (Nucleic Acids Research, 2019).

Ends that are not written are not given here. * marks the point of attachment. Biotin = O=C1N[C@H]2[C@H](CS[C@H]2CCCCC(=O)*)N1

In this experiment the target is GST–BRCA1–BRCT (UniProt P38398 1582-1863). The experiment can be described thus: pull-down.
GST–BRCA1–BRCT, sequence (P38398 1582-1863): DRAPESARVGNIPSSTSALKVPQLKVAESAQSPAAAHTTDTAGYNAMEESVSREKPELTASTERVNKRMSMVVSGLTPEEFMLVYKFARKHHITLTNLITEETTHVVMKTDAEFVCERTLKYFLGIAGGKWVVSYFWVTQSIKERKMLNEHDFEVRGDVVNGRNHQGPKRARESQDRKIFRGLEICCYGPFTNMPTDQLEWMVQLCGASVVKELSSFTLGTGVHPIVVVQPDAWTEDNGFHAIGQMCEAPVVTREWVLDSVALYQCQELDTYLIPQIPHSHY

Consider Biotin-KHDAIMDGASPDYVLV [biotinylated CSB peptide without S1276 phosphorylation], for which the binding result was “binds”.
